# Measured values published in PMC4993999, “Asymmetry in inward- and outward-affinity constant of transport explain unidirectional lysine flux in Saccharomyces cerevisiae” (Scientific Reports, 2016).
# Columns and labels:
# purified protein [1] = substrate: NCCCC[C@H](N)C(=O)O; test: purified protein; type: biochemical, Saccharomyces cerevisiae; conditions: PMF-driven: ΔΨ -84 mV, ZΔpH -84 mV, external pH 6.0, internal pH 7.3, 30 °C, labelled compound, high-affinity component (out-to-in) of hyperbola plus linear fit
# [2] = substrate: NCCCC[C@H](N)C(=O)O; test: cells, lysate or membranes; type: cell-based, Saccharomyces cerevisiae; conditions: whole cells 22∆6AAL, 100 mM potassium phosphate, 10 mM glucose, pH 6.0, 30 °C, labelled compound
# purified protein [3] = substrate: NCCCC[C@H](N)C(=O)O; test: purified protein; conditions: PMF-driven: ΔΨ -84 mV, ZΔpH -84 mV, external pH 6.0, internal pH 7.3, 30 °C, labelled compound
protein,measurement,setting,value
"Lyp1-GFP (Lyp1-TEV-GFP-His10) (Saccharomyces cerevisiae S288C) (protein, full length, C-terminal TEV-GFP-His10 kept; expressed in Pichia pastoris SMD1163; purified and reconstituted in yeast/E. coli lipid vesicles) MGRFSNIITSNKWDEKQNNIGEQSMQELPEDQIEHEMEAIDPSNKTTPYSIDEKQYNTKKKHGSLQGGAIADVNSITNSLTRLQVVSHETDINEDEEEAHYEDKHVKRALKQRHIGMIALGGTIGTGLFVGISTPLSNAGPVGSLIAYIFMGTIVYFVTQSLGEMATFIPVTSSITVFSKRFLSPAFGVSNGYMYWFNWAITYAVEVSVIGQVIEYWTDKVPLAAWIAIFWVIITLMNFFPVKVYGEFEFWVASVKVLAIMGYLIYALIIVCGGSHQGPIGFRYWRNPGAWGPGIISSDKSEGRFLGWVSSLINAAFTYQGTELVGITAGEAANPRKTVPRAINKVVFRIVLFYIMSLFFIGLLVPYNDSRLSASSAVIASSPFVISIQNAGTYALPDIFNAVVLITVVSAANSNVYVGSRVLYSLARTGNAPKQFGYVTRQGVPYLGVVCTAALGLLAFLVVNNNANTAFNWLINISTLAGLCAWLFISLAHIRFMQALKHRGISRDDLPFKAKLMPYGAYYAAFFVTVIIFIQGFQAFCPFKVSEFFTSYISLILLAVVFIGCQIYYKCRFIWKLEDIDIDSDRREIEAIIWEDDEPKNLWEKFWAAVA",Km,purified protein [1],20 ± 14 µM
"Lyp1-YPet (Saccharomyces cerevisiae S288C) (protein, full length, C-terminal TEV-YPet-His8 kept; expressed from plasmid under native LYP1 promoter in S. cerevisiae 22∆6AAL) MGRFSNIITSNKWDEKQNNIGEQSMQELPEDQIEHEMEAIDPSNKTTPYSIDEKQYNTKKKHGSLQGGAIADVNSITNSLTRLQVVSHETDINEDEEEAHYEDKHVKRALKQRHIGMIALGGTIGTGLFVGISTPLSNAGPVGSLIAYIFMGTIVYFVTQSLGEMATFIPVTSSITVFSKRFLSPAFGVSNGYMYWFNWAITYAVEVSVIGQVIEYWTDKVPLAAWIAIFWVIITLMNFFPVKVYGEFEFWVASVKVLAIMGYLIYALIIVCGGSHQGPIGFRYWRNPGAWGPGIISSDKSEGRFLGWVSSLINAAFTYQGTELVGITAGEAANPRKTVPRAINKVVFRIVLFYIMSLFFIGLLVPYNDSRLSASSAVIASSPFVISIQNAGTYALPDIFNAVVLITVVSAANSNVYVGSRVLYSLARTGNAPKQFGYVTRQGVPYLGVVCTAALGLLAFLVVNNNANTAFNWLINISTLAGLCAWLFISLAHIRFMQALKHRGISRDDLPFKAKLMPYGAYYAAFFVTVIIFIQGFQAFCPFKVSEFFTSYISLILLAVVFIGCQIYYKCRFIWKLEDIDIDSDRREIEAIIWEDDEPKNLWEKFWAAVA",Km,[2],10 ± 0.8 µM
LysP (Salmonella enterica subsp. enterica serovar Typhimurium str. LT2) (protein) MGSKTKTTEAPALRRELKARHLTMIAIGGSIGTGLFVASGATISQAGPGGALFSYILIGLMVYFLMTSLGELAAYMPVSGSFATYGQNYVEEGFGFALGWNYWYNWAVTIAVDLVAAQLVMGWWFPDTPGWIWSALFLCVIFLLNYISVRGFGEAEYWFSLIKVATVIIFIIVGVAMIIGIFKGVEPVGWSNWTTGDAPFAGGFAAMIGVAMIVGFSFQGTELIGIAAGESENPEKNIPRAVRQVFWRILLFYVFAILIISLIIPYTDPNLLRNDVKDISVSPFTLVFQHAGLLSAAAIMNAVILTAVLSAGNSGMYASTRMLYTLACDGKAPRIFAKLSRGGVPRNALYATTVIAGLCFLTSMFGNQTVYLWLLNTSGMTGFIAWLGIAISHYRFRRGYVLQGYDVNDLPYRSGFFPLGPIFAFVLCLIITLGQNYEAFLKDTIDWGGVAATYIGIPLFLLIWFGYKLIKGTHFVRYSEMHFPERVKK,Km,purified protein [3],1.5 ± 0.2 µM
